Assay results published in patent US20170313754A1 (PROTAGONIST THERAPEUTICS, published 2017).
Bridge positions count the residues as written; N and C are the ends. Square brackets hold non-standard residues; d marks the D form. * marks the point of attachment. Palmitoyl = CCCCCCCCCCCCCCCC(=O)*; Isovaleryl = CC(C)CC(=O)*; βAla = NCCC(=O)O; Sar = CNCC(=O)O

What was measured:
Assay in all cases: cell-based or functional assay
[1] = target: T1, human ferroportin (SLC40A1) fused in frame with GFP, stably expressed on HEK293 cells (human, UniProt Q9NP59 1-571)
T1 sequence (looked up): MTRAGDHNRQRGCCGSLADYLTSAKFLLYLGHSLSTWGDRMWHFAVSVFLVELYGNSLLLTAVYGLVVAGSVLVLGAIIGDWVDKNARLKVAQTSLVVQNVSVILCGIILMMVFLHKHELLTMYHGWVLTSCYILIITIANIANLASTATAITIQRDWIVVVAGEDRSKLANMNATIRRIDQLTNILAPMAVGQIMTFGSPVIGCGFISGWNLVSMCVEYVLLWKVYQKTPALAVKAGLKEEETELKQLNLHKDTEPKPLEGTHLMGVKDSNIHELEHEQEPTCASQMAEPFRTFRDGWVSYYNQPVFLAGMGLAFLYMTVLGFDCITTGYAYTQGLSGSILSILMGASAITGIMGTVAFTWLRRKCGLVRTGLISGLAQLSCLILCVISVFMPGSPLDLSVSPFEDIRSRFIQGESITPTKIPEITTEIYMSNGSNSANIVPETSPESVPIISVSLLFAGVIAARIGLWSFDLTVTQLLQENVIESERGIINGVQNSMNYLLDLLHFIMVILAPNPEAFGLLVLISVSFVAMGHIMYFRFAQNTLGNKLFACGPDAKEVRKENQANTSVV

[2] = target: T2, human ferroportin (SLC40A1) fused in frame with GFP, stably expressed in HEK293 cells (human, UniProt Q9NP59 1-571)
T2 sequence (looked up): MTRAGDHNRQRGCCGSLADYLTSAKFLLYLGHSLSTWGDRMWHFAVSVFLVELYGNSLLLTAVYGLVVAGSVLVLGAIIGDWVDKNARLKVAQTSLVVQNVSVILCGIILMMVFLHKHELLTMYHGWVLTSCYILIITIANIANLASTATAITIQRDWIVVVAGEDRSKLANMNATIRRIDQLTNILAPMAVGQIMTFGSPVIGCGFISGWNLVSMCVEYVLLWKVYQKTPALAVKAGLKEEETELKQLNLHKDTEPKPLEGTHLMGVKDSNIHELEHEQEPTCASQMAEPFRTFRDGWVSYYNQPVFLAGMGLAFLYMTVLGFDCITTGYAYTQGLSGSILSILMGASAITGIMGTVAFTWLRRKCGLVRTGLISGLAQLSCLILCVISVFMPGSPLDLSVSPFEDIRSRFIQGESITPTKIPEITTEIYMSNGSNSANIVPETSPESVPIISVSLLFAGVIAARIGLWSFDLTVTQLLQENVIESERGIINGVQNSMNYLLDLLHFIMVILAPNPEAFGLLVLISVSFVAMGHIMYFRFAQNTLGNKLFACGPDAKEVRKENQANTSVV

[3] = target: T1, human ferroportin (SLC40A1) fused in …; remark: listed apart in the source

B1: Hy-DTHFPCILY-NH2 (peptide)
peptide: H-DTHFPCILY-NH2
[1]
  percent at the stated concentration, ferroportin internalization assay: 85 % at 1 uM

B2: Isovaleric acid-DTHF-[β-Ala]-CIIFGPRSKGWVCK-NH2 (peptide)
peptide: Isovaleryl-DTHF[βAla]CIIFGPRSKGWVCK-NH2
modifications: not fully specified (bridges); cysteine pairing not given here
[2]
  Potency EC50: 264 nM

B3: Hy-DTHFPCAIF-NH2 (peptide)
peptide: H-DTHFPCAIF-NH2
[3]
  EC50 (nM), ferroportin internalization/degradation assay: > 1000 nM

B4: Hy-DTHFPCI-K(IVA)-FGPRSKGWVCK-NH2 (peptide)
peptide: H-DTHFPCIK(Isovaleryl)FGPRSKGWVCK-NH2
modifications: disulfide 6-18 (inferred)
[2]
  Potency EC50: > 500 nM

B5: Isovaleric acid-DTHFPCIIF-[Sarc]-PRSKG[N-MeTrp]-VC-NH2 (peptide)
peptide: DTHFPCIIFXPRSKGWVC
modifications: N-terminal isovaleric acid; Sarc at 10; N-MeTrp at 16; C-terminal amide
[1]
  Ferroportin internalization assay EC50: 10 nM

B6: Hy-DTHFPCIIFAA-NH2 (peptide)
peptide: H-DTHFPCIIFAA-NH2
[1]
  percent at the stated concentration, ferroportin internalization assay: 59 % at 1 uM

B7: Isovaleric acid-DTHFGCIKFEPRSKEWVCK-NH2 (peptide)
peptide: Isovaleryl-DTHFGCIKFEPRSKEWVCK-NH2
modifications: not fully specified (bridges); cysteine pairing not given here
[1]
  Ferroportin internalization assay EC50: > 1000 nM

B8: Hy-HFPCIIFGPRSKGWVCK-NH2 (peptide)
peptide: H-HFPCIIFGPRSKGWVCK-NH2
modifications: disulfide 4-16 (inferred)
[2]
  Potency EC50 (nM): > 10000 nM

B9: Hy-DTHFPCIIY-NH2 (peptide)
peptide: H-DTHFPCIIY-NH2
[1]
  percent at the stated concentration, ferroportin internalization assay: 75 % at 10 uM

B10: Hy-DTHKPCIIF-NH2 (peptide)
peptide: H-DTHKPCIIF-NH2
[1]
  percent at the stated concentration, ferroportin internalization assay: 45 % at 10 uM

B11: Hy-DTHFPCIDFGPRSKGWVCK-NH2 (peptide)
peptide: H-DTHFPCIDFGPRSKGWVCK-NH2
modifications: disulfide 6-18 (inferred)
[1]
  Ferroportin internalization assay EC50: > 1000 nM

B12: Hy-ADHFPCIIF-NH2 (peptide)
peptide: H-ADHFPCIIF-NH2
[1]
  Ferroportin internalization assay EC50: > 1000 nM

B13: Hy-DTHFVCIIF-NH2 (peptide)
peptide: H-DTHFVCIIF-NH2
[1]
  percent at the stated concentration, ferroportin internalization assay: 50 % at 10 uM

B14: Isovaleric acid-DTHFPCIKF-K(Palm)-PRSKGWVCK-NH2 (peptide)
peptide: DTHFPCIKFKPRSKGWVCK
modifications: N-terminal isovaleric acid; Palm on the side chain of Lys 10; C-terminal amide
[2]
  Potency EC50: 9 nM

B15: Isovaleric acid-DTHFPCIIF-[Sarc]-PHSKG[N-MeTrp]-VC-NH2 (peptide)
peptide: DTHFPCIIFXPHSKGWVC
modifications: N-terminal isovaleric acid; Sarc at 10; N-MeTrp at 16; C-terminal amide
[1]
  Ferroportin internalization assay EC50: 9 nM

B16: Hy-DTHFPCINFGPRSKGWVCK-NH2 (peptide)
peptide: H-DTHFPCINFGPRSKGWVCK-NH2
modifications: disulfide 6-18 (inferred)
[1]
  Ferroportin internalization assay EC50: > 1000 nM

B17: Hy-DTHFPCIEY-NH2 (peptide)
peptide: H-DTHFPCIEY-NH2
[1]
  percent at the stated concentration, ferroportin internalization assay: 8 % at 1 uM

B18: Hy-DTHFGCIIFGPRSKGWVCK-NH2 (peptide)
peptide: H-DTHFGCIIFGPRSKGWVCK-NH2
modifications: disulfide 6-18 (inferred)
[2]
  Potency EC50 (nM): > 1000 nM

B19: Hy-DTHF-[Sarc]-CIIFGPRSKGWVCK-NH2 (peptide)
peptide: H-DTHF[Sar]CIIFGPRSKGWVCK-NH2
modifications: disulfide 6-18 (inferred)
[2]
  Potency EC50 (nM): > 1000 nM

B20: Isovaleric acid-DTHFPCIKFGPRS-K(Palm)-GWVCK-NH2 (peptide)
peptide: Isovaleryl-DTHFPCIKFGPRSK(Palmitoyl)GWVCK-NH2
modifications: disulfide 6-18 (inferred)
[2]
  Potency EC50: 1 nM

B21: Hy-DTHFPCVIF-NH2 (peptide)
peptide: H-DTHFPCVIF-NH2
[3]
  percent at the stated concentration, ferroportin internalization/degradation assay: 81 % at 10 uM

B22: Hy-DTHFPCIIFGPRSKGWNCK-NH2 (peptide)
peptide: H-DTHFPCIIFGPRSKGWNCK-NH2
modifications: not fully specified (bridges); printed as Hy-DTHFPCIIFGPRSKGWNCK-NH2; cysteine pairing not given here
[1]
  Ferroportin internalization assay EC50: > 1000 nM

B23: Hy-DTHFKCIIFGPRSKGWVCK-NH2 (peptide)
peptide: H-DTHFKCIIFGPRSKGWVCK-NH2
modifications: disulfide 6-18 (inferred)
[2]
  Potency EC50 (nM): > 1000 nM

B24: Isovaleric acid-DTHFPCIKFGP-K(Palm)-SKGWVCK-NH2 (peptide)
peptide: Isovaleryl-DTHFPCIKFGPK(Palmitoyl)SKGWVCK-NH2
modifications: not fully specified (bridges); cysteine pairing not given here
[2]
  Potency EC50: 2 nM

B25: Isovaleric acid-HFPCIIFGPRSKGWVCK-NH2 (peptide)
peptide: Isovaleryl-HFPCIIFGPRSKGWVCK-NH2
modifications: disulfide 4-16 (inferred)
[2]
  Potency EC50 (nM): > 10000 nM

B26: Hy-DTHF-[β-Ala]-CIIFGPRSKGWVCK-NH2 (peptide)
peptide: H-DTHF[βAla]CIIFGPRSKGWVCK-NH2
modifications: disulfide 6-18 (inferred)
[2]
  Potency EC50 (nM): > 1000 nM

B27: Hy-DTHFPCIIT-NH2 (peptide)
peptide: H-DTHFPCIIT-NH2
[1]
  percent at the stated concentration, ferroportin internalization assay: 23 % at 1 uM

B28: Hy-DTHFPCIIFAC-NH2 (peptide)
peptide: H-DTHFPCIIFAC-NH2
modifications: disulfide 6-11 (inferred)
[1]
  Ferroportin internalization assay EC50: > 1000 nM

B29: Isovaleric acid-DTHFECIIFGPRSKGWVCK-NH2 (peptide)
peptide: Isovaleryl-DTHFECIIFGPRSKGWVCK-NH2
modifications: not fully specified (bridges); cysteine pairing not given here
[1]
  Ferroportin internalization assay EC50: > 1000 nM

B30: Hy-ATHFPCIIF-NH2 (peptide)
peptide: H-ATHFPCIIF-NH2
[1]
  Ferroportin internalization assay EC50: > 1000 nM

B31: Isovaleric acid-DTEFPCIKFEPRSKEWVCK-NH2 (peptide)
peptide: Isovaleryl-DTEFPCIKFEPRSKEWVCK-NH2
modifications: disulfide 6-18 (inferred)
[1]
  Ferroportin internalization assay EC50: > 1000 nM

B32: Hy-DPHFPCIIF-NH2 (peptide)
peptide: H-DPHFPCIIF-NH2
[1]
  percent at the stated concentration, ferroportin internalization assay: 64 % at 10 uM

B33: Hy-DTHFRCIIFGPRSKGWVCK-NH2 (peptide)
peptide: H-DTHFRCIIFGPRSKGWVCK-NH2
modifications: disulfide 6-18 (inferred)
[2]
  Potency EC50 (nM): > 1000 nM

B34: Hy-DTHFPCIIFGPRSRGHVCK-NH2 (peptide)
peptide: H-DTHFPCIIFGPRSRGHVCK-NH2
modifications: not fully specified (bridges); printed as Hy-DTHFPCIIFGPRSRGHVCK-NH2; cysteine pairing not given here
[1]
  Ferroportin internalization assay EC50: > 1000 nM

B35: Hy-DTHFPCIKF-K(IVA)-PRSKGWVCK-NH2 (peptide)
peptide: DTHFPCIKFKPRSKGWVCK
modifications: IVA (isovaleric acid) on the side chain of Lys 10; C-terminal amide
[2]
  Potency EC50: > 500 nM
